Reference: article doi:10.1101/2022.07.18.499583

Biological target: NSP1 (SARS-CoV-2, UniProt P0DTD1 1-180)
Test: BLI

Binder: AACCAACUUUCGAUCUCUUGUAGAUCUGUUCU (structured_RNA) [SL2 (unmodified)]
- Kd: 300 ± 54 nM
